Results from the supplement of paper PMC10126150.
± gives the standard deviation of the averaged measurements.

test system: ATP; assay: switch fluorescence ratio, 500 uM ATP over buffer (Cy3 cluster intensity, sum of 5 cycles each) (fold (ratio)); higher = stronger signal-on switching upon ATP binding; sequences stand for … in TCGTCGGCAGCGTCAGATGTGTATAAGAGACAGTTTTTTTTTTTTTTTTTTTTTTTTT…TC; details: aptamer strand: ATP DNA aptamer (quencher-CACCTGGGGGAGTATTGCGGAGGAAGG + anchor), 100 nM annealed; ATP concentration: 500 uM
How it was run: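 Imaging in selection buffer was followed by imaging after 15 min with 500 uM ATP at 22 °C, for Cy3-labelled switching-strand clusters annealed to 100 nM quencher-labelled ATP aptamer on a modified Illumina MiSeq flow-cell. Five of these buffer/ATP cycles ran, separated by NaOH stripping and re-annealing. The fluorescence ratio per cluster is summed target-cycle over summed buffer-cycle Cy3 intensity, averaged per switch-domain sequence; clusters outside 100-1000 RFU were removed.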
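Note: ATP exposure 15 min at 22 °C before imaging.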

Row | Sequence | switch fluorescence ratio
1 | TCAACCCTTA | 1.03 ± 0.038
2 | TCAACGATAT | 1.07 ± 0.075
3 | TCAACTATTT | 0.972 ± 0.031
4 | TCAAGAGCTG | 1.08 ± 0.072
5 | TCAAGATGTG | 0.99 ± 0.036
6 | TCAAGATTGG | 0.986 ± 0.023
7 | TCAAGCGGGG | 1.06 ± 0.09
8 | TCAAGCTTTT | 1.01 ± 0.017
9 | TCAAGGGAAA | 1 ± 0.058
10 | TCAAGGGGAA | 1 ± 0.019
11 | TCAAGGTCCT | 1.127 ± 0.0091
12 | TCAATACGTT | 1.09 ± 0.016
13 | TCAATCATAT | 0.982 ± 0.033
14 | TCAATCGCTT | 1.09 ± 0.026
15 | TCAATCGGAA | 1.06 ± 0.014
16 | TCAATCTGTG | 1.01 ± 0.066
17 | TCAATGAATA | 0.986 ± 0.02
18 | TCAATGGTAT | 1.17 ± 0.28
19 | TCAATGGTGG | 1.01 ± 0.028
20 | TCAATGTGGT | 1.016 ± 0.008
21 | TCAATGTTTT | 0.9846 ± 0.0031
22 | TCAATTAGGC | 1.05 ± 0.027
23 | TCACACGGCG | 1.13 ± 0.18
24 | TCACACGTCG | 1.02 ± 0.013
25 | TCACAGATGG | 1.02 ± 0.036

Row | Sequence | switch fluorescence ratio
26 | TCACAGTCTA | 1.04 ± 0.058
27 | TCACCAGGGG | 1.76 ± 0.72
28 | TCACCGAGGC | 1.15 ± 0.07
29 | TCACCTTGTT | 1.03 ± 0.037
30 | TCACGAGGCT | 1.038 ± 0.0097
31 | TCACGATTGG | 1.02 ± 0.02
32 | TCACGCCGGG | 1.04 ± 0.019
33 | TCACGGATGT | 1.04 ± 0.012
34 | TCACGGCTGG | 0.971 ± 0.029
35 | TCACGGGAAT | 1.02 ± 0.055
36 | TCACGGGGGT | 1.17 ± 0.23
37 | TCACGTTATG | 1.11 ± 0.026
38 | TCACTAGATC | 0.998 ± 0.021
39 | TCACTGGGTG | 1.23 ± 0.035
40 | TCACTGTTGT | 0.993 ± 0.032
41 | TCACTTATAA | 1.02 ± 0.018
42 | TCACTTATGG | 1.03 ± 0.033
43 | TCAGAAAGGG | 1.021 ± 0.0059
44 | TCAGAAGCGG | 1.3 ± 0.1
45 | TCAGAAGGCG | 0.981 ± 0.015
46 | TCAGAAGGGT | 0.994 ± 0.03
47 | TCAGAATCTA | 1 ± 0.015
48 | TCAGACATCG | 1.01 ± 0.035
49 | TCAGACTAGA | 1.028 ± 0.0045
50 | TCAGATGGGG | 1.03 ± 0.021

Row | Sequence | switch fluorescence ratio
51 | TCAGATTAGT | 0.968 ± 0.016
52 | TCAGCATGTA | 1.04 ± 0.019
53 | TCAGCCGGGA | 1.08 ± 0.024
54 | TCAGCCGTTT | 1.05 ± 0.054
55 | TCAGCTCCGT | 1.08 ± 0.025
56 | TCAGGAAAAG | 0.989 ± 0.019
57 | TCAGGAAAGG | 1.003 ± 0.0027
58 | TCAGGCGGGC | 1.015 ± 0.0058
59 | TCAGGCGTTG | 0.971 ± 0.027
60 | TCAGGCTGGG | 1.02 ± 0.016
61 | TCAGGGCTAA | 1.02 ± 0.062
62 | TCAGGGGATC | 1.01 ± 0.017
63 | TCAGGGGCGA | 1.041 ± 0.0078
64 | TCAGGGGCGG | 1.04 ± 0.096
65 | TCAGGGGGGG | 1.02 ± 0.022
66 | TCAGGGGGTT | 1.05 ± 0.037
67 | TCAGGGGTCT | 0.994 ± 0.011
68 | TCAGGGGTTG | 1.09 ± 0.17
69 | TCAGGGTGCC | 1.017 ± 0.0094
70 | TCAGGTACAT | 1.07 ± 0.014
71 | TCAGGTCGCA | 0.9894 ± 0.0054
72 | TCAGGTTTGT | 1.28 ± 0.34
73 | TCAGGTTTTT | 1.13 ± 0.22
74 | TCAGTAACGC | 1.05 ± 0.013
75 | TCAGTAGATC | 1.02 ± 0.044

Row | Sequence | switch fluorescence ratio
76 | TCAGTGGGTT | 0.9968 ± 0.0089
77 | TCAGTGTCCG | 0.966 ± 0.038
78 | TCAGTTGTAC | 1.08 ± 0.011
79 | TCAGTTGTCA | 0.981 ± 0.017
80 | TCAGTTTATG | 0.961 ± 0.011
81 | TCATAAAAGC | 0.99 ± 0.027
82 | TCATAATAGC | 0.977 ± 0.028
83 | TCATAATTGG | 1.005 ± 0.0045
84 | TCATACTTAA | 1.04 ± 0.1
85 | TCATAGATTT | 0.988 ± 0.013
86 | TCATAGCGGT | 1.095 ± 0.0014
87 | TCATAGGTGG | 1 ± 0.034
88 | TCATAGTTCA | 1.03 ± 0.012
89 | TCATATGAGT | 1 ± 0.051
90 | TCATATTAAG | 0.9911 ± 0.0028
91 | TCATCCCTAT | 1.1 ± 0.15
92 | TCATCGCTTT | 1.08 ± 0.021
93 | TCATCTTGGC | 1.02 ± 0.096
94 | TCATGAATTT | 0.9885 ± 0.0089
95 | TCATGACTTT | 1.012 ± 0.0038
96 | TCATGATTTT | 0.9992 ± 0.0048
97 | TCATGCATGT | 1.035 ± 0.01
98 | TCATGCCCTT | 1.02 ± 0.033
99 | TCATGCTGGT | 1.01 ± 0.024
100 | TCATGGAAGG | 1.01 ± 0.026
